In article PMC10786891, “Massively parallel profiling of RNA-targeting CRISPR-Cas13d” one finds Kd data, which are given here for 13 molecules.

As a reminder, the Kd is the concentration at which binding is half-saturated. Read a low Kd as tighter binding.

The chains are these.
B1: target 1 MT 5'PFS CAG 3'PFS AUA (mixed)
RNA 1: CACCCGUGCAAAAAUGCAGGGGUCUAAAACUGAGCGGAUAACCUCUCUAUGG
RNA 2: GGGAAUGGAUCCACAUCUACGAAUUCCAGCCAUAGAGAGGUUAUCCGCUCAAUAAGAUCGGAAGAGCACACGU
B2: target 1 MT 5'PFS AAA 3'PFS AUG (mixed)
RNA 1: CACCCGUGCAAAAAUGCAGGGGUCUAAAACUGAGCGGAUAACCUCUCUAUGG
RNA 2: GGGAAUGGAUCCACAUCUACGAAUUCAAACCAUAGAGAGGUUAUCCGCUCAAUGAGAUCGGAAGAGCACACGU
B3: target 1 MT 5'PFS AUA 3'PFS UUC (mixed)
RNA 1: CACCCGUGCAAAAAUGCAGGGGUCUAAAACUGAGCGGAUAACCUCUCUAUGG
RNA 2: GGGAAUGGAUCCACAUCUACGAAUUCAUACCAUAGAGAGGUUAUCCGCUCAUUCAGAUCGGAAGAGCACACGU
B4: target 1 MT 5'PFS AAC 3'PFS CUA (mixed)
RNA 1: CACCCGUGCAAAAAUGCAGGGGUCUAAAACUGAGCGGAUAACCUCUCUAUGG
RNA 2: GGGAAUGGAUCCACAUCUACGAAUUCAACCCAUAGAGAGGUUAUCCGCUCACUAAGAUCGGAAGAGCACACGU
B5: target 1 insG 3' of 10,insU 3' of 4 (mixed)
RNA 1: CACCCGUGCAAAAAUGCAGGGGUCUAAAACUGAGCGGAUAACCUCUCUAUGG
RNA 2: GGGAAUGGAUCCACAUCUACGAAUUCGUACCAUAGAGAGGUUGAUCCGCUUCACCGAGAUCGGAAGAGCACACGU
B6: target 1 MT 5'PFS ACG 3'PFS AGC (mixed)
RNA 1: CACCCGUGCAAAAAUGCAGGGGUCUAAAACUGAGCGGAUAACCUCUCUAUGG
RNA 2: GGGAAUGGAUCCACAUCUACGAAUUCACGCCAUAGAGAGGUUAUCCGCUCAAGCAGAUCGGAAGAGCACACGU
B7: target 1 MT 5'PFS AUA 3'PFS UUG (mixed)
RNA 1: CACCCGUGCAAAAAUGCAGGGGUCUAAAACUGAGCGGAUAACCUCUCUAUGG
RNA 2: GGGAAUGGAUCCACAUCUACGAAUUCAUACCAUAGAGAGGUUAUCCGCUCAUUGAGAUCGGAAGAGCACACGU
B8: target 1 MT 5'PFS GGC 3'PFS ACC (mixed)
RNA 1: CACCCGUGCAAAAAUGCAGGGGUCUAAAACUGAGCGGAUAACCUCUCUAUGG
RNA 2: GGGAAUGGAUCCACAUCUACGAAUUCGGCCCAUAGAGAGGUUAUCCGCUCAACCAGAUCGGAAGAGCACACGU
B9: target 1 MT 5'PFS AAA 3'PFS AUU (mixed)
RNA 1: CACCCGUGCAAAAAUGCAGGGGUCUAAAACUGAGCGGAUAACCUCUCUAUGG
RNA 2: GGGAAUGGAUCCACAUCUACGAAUUCAAACCAUAGAGAGGUUAUCCGCUCAAUUAGAUCGGAAGAGCACACGU
B10: target 1 MT 5'PFS ACA 3'PFS AAC (mixed)
RNA 1: CACCCGUGCAAAAAUGCAGGGGUCUAAAACUGAGCGGAUAACCUCUCUAUGG
RNA 2: GGGAAUGGAUCCACAUCUACGAAUUCACACCAUAGAGAGGUUAUCCGCUCAAACAGAUCGGAAGAGCACACGU
B11: target 1 MT 5'PFS ACA 3'PFS AAA (mixed)
RNA 1: CACCCGUGCAAAAAUGCAGGGGUCUAAAACUGAGCGGAUAACCUCUCUAUGG
RNA 2: GGGAAUGGAUCCACAUCUACGAAUUCACACCAUAGAGAGGUUAUCCGCUCAAAAAGAUCGGAAGAGCACACGU
B12: target 1 MT 5'PFS GGC 3'PFS ACU (mixed)
RNA 1: CACCCGUGCAAAAAUGCAGGGGUCUAAAACUGAGCGGAUAACCUCUCUAUGG
RNA 2: GGGAAUGGAUCCACAUCUACGAAUUCGGCCCAUAGAGAGGUUAUCCGCUCAACUAGAUCGGAAGAGCACACGU
B13: target 1 MT 5'PFS GCC 3'PFS UCU (mixed)
RNA 1: CACCCGUGCAAAAAUGCAGGGGUCUAAAACUGAGCGGAUAACCUCUCUAUGG
RNA 2: GGGAAUGGAUCCACAUCUACGAAUUCGCCCCAUAGAGAGGUUAUCCGCUCAUCUAGAUCGGAAGAGCACACGU

This series has as its target T1, EsCas13d, nuclease-dead (Eubacterium siraeum, UniProt B0MS50, R295A;H300A;R849A;H854A).
T1 sequence: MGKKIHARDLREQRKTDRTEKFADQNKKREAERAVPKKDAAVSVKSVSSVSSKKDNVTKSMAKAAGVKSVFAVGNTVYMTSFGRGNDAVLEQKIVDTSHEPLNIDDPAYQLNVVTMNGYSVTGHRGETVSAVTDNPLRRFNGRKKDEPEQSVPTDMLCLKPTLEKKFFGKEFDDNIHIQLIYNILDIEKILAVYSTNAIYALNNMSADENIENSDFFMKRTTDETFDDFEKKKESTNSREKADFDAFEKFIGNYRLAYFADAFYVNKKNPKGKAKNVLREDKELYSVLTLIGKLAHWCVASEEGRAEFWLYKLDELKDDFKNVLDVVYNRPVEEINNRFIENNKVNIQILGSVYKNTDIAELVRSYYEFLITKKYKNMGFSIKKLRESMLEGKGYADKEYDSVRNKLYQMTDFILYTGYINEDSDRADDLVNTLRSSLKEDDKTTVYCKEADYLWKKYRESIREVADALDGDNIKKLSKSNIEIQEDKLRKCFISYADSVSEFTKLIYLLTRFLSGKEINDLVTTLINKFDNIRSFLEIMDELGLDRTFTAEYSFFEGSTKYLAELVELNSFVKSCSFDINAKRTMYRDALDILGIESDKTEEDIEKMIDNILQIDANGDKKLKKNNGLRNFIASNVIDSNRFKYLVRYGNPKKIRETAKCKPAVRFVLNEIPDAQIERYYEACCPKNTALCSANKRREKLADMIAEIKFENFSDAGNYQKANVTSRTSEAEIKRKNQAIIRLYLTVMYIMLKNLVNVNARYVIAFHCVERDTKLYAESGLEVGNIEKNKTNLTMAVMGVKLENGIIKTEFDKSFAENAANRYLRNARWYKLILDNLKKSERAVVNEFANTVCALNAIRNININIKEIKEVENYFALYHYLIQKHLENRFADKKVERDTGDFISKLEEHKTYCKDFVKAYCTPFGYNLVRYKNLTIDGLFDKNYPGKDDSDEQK
Briefly: crRNA (strand 1, pre-loaded); Mg2+; 40 mM Tris-HCl pH 7.5, 150 mM NaCl, 6 mM MgCl2, 1 mM DTT, 0.1% Tween-20, 0.2 mg/ml BSA; 25 C; 10 min per concentration, then washed. As to conditions: tags: His6-TwinStrep-SUMO cleaved; N-terminal SNAP kept (SNAP-Surface 488); label: 3' end held by stalled T7 RNA polymerase.
The molecule B1 yielded a Kd of 29 ± 13.5 nM.
Regarding B2, the Kd came out at 28.5 ± 8 nM.
Molecule B3 came in with a Kd of 16.5 ± 5.5 nM.
With B4 the figure was 39 ± 19.5 nM.
On to B5, for which binding was characterised by a dissociation constant (Kd) of 32 ± 7 nM.
In turn, B6 gave a Kd of about 31 nM.
With B7 the figure was 10.8 ± 2.45 nM; with B8, 24.3 ± 5.25 nM; with B9, 28 ± 9.5 nM.
For B10 the value was 15.3 ± 4.85 nM.
Consider B11, for which the dissociation constant (Kd) is about 49 nM.
Turning to B12, the Kd amounted to 14.4 ± 1.55 nM.
On to B13, for which binding was characterised by a dissociation constant (Kd) of 12.2 ± 2.85 nM.
